Experimental data published in patent publication US20240132624A1 (Ablynx, published 2024).
Positions count from the first letter of the chain named.

B1: T026301110 (VHH, name in Kabat numbering)
VHH: EVQLVESGGGVVQPGGSLRLSCAASGFTFSEYAMYWVRQAPGKGLEWVSAISQGGGSTDYADSVKGRFTISRDNSKNTLYLQMNSLRPEDTALYYCAADTLYTDLTWYSYWGQGTLVTVSS
notes: tagless
B2: T026301096 (VHH, name in Kabat numbering)
VHH: B1 VHH with E31S, W107S
notes: tagless
B3: T026301127 (VHH, name in Kabat numbering)
VHH: B1 VHH with G26T, A33D, Q53S, D104S, W107S
notes: tagless
B4: T026301125 (VHH, name in Kabat numbering)
VHH: B1 VHH with Q53S, D104S, W107K
notes: tagless
B5: T026301074 (VHH, name in Kabat numbering)
VHH: B1 VHH with G26T, Q53S
notes: tagless
B6: T026301124 (VHH, name in Kabat numbering)
VHH: B1 VHH with G26T, D104S, W107K
notes: tagless
B7: T026301086 (VHH, name in Kabat numbering)
VHH: B1 VHH with A33D, Q53S
notes: tagless
B8: T026301128 (VHH, name in Kabat numbering)
VHH: B1 VHH with E31S, W107K
notes: tagless
B9: T026301084 (VHH, name in Kabat numbering)
VHH: B1 VHH with E31S, Q53S, W107S
notes: tagless
B10: T026301085 (VHH, name in Kabat numbering)
VHH: B1 VHH with E31S
notes: tagless
B11: T026301051 (VHH, name in Kabat numbering)
VHH: B1 VHH with E31S, A33D, Q53S
notes: tagless
B12: T026301072 (VHH, name in Kabat numbering)
VHH: B1 VHH with E31S, A33D, W107S
notes: tagless
B13: T026301052 (VHH, name in Kabat numbering)
VHH: B1 VHH with G26T, A33D, Q53S, D104S
notes: tagless
B14: T026301121 (VHH, name in Kabat numbering)
VHH: B1 VHH with G26T, A33D, D104S
notes: tagless
B15: T026301089 (VHH, name in Kabat numbering)
VHH: B1 VHH with E31S, Q53S, W107K
notes: tagless
B16: T026301097 (VHH, name in Kabat numbering)
VHH: B1 VHH with G26T, D104S
notes: tagless
B17: T026301126 (VHH, name in Kabat numbering)
VHH: B1 VHH with G26T, E31S, Q53S, D104S, W107K
notes: tagless
B18: T026301054 (VHH, name in Kabat numbering)
VHH: B1 VHH with G26T
notes: tagless
B19: T026301113 (VHH, name in Kabat numbering)
VHH: B1 VHH with D104S, W107K
notes: tagless
B20: T026301067 (VHH, name in Kabat numbering)
VHH: B1 VHH with G26T, E31S, A33D, D104S, W107K
notes: tagless
B21: T026301083 (VHH, name in Kabat numbering)
VHH: B1 VHH with W107S
notes: tagless
B22: T026301078 (VHH, name in Kabat numbering)
VHH: B1 VHH with A33D
notes: tagless
B23: T026301059 (VHH, name in Kabat numbering)
VHH: B1 VHH with A33D, W107S
notes: tagless
B24: T026301071 (VHH, name in Kabat numbering)
VHH: B1 VHH with G26T, Q53S, W107S
notes: tagless
B25: T026301112 (VHH, name in Kabat numbering)
VHH: B1 VHH with A33D, D104S, W107K
notes: tagless
B26: T026301123 (VHH, name in Kabat numbering)
VHH: B1 VHH with G26T, E31S, A33D, Q53S, D104S
notes: tagless
B27: T026301109 (VHH, name in Kabat numbering)
VHH: B1 VHH with G26T, E31S, A33D, D104S
notes: tagless
B28: T026301094 (VHH, name in Kabat numbering)
VHH: B1 VHH with G26T, A33D, D104S, W107S
notes: tagless
B29: T026301081 (VHH, name in Kabat numbering)
VHH: B1 VHH with G26T, E31S, Q53S, D104S, W107S
notes: tagless
B30: T026301082 (VHH, name in Kabat numbering)
VHH: B1 VHH with G26T, E31S, Q53S, W107S
notes: tagless
B31: T026301060 (VHH, name in Kabat numbering)
VHH: B1 VHH with Q53S, W107S
notes: tagless
B32: T026301088 (VHH, name in Kabat numbering)
VHH: B1 VHH with E31S, A33D, Q53S, D104S, W107K
notes: tagless
B33: T026301107 (VHH, name in Kabat numbering)
VHH: B1 VHH with G26T, E31S, A33D, D104S, W107S
notes: tagless
B34: T026301090 (VHH, name in Kabat numbering)
VHH: B1 VHH with G26T, E31S, D104S, W107K
notes: tagless
B35: T026301049 (VHH, name in Kabat numbering)
VHH: B1 VHH with G26T, A33D, Q53S
notes: tagless
B36: T026301066 (VHH, name in Kabat numbering)
VHH: B1 VHH with Q53S, W107K
notes: tagless
B37: T026301116 (VHH, name in Kabat numbering)
VHH: B1 VHH with A33D, Q53S, W107K
notes: tagless
B38: T026301130 (VHH, name in Kabat numbering)
VHH: B1 VHH with G26T, A33D, Q53S, W107S
notes: tagless
B39: T026301068 (VHH, name in Kabat numbering)
VHH: B1 VHH with E31S, A33D, W107K
notes: tagless
B40: T026301101 (VHH, name in Kabat numbering)
VHH: B1 VHH with G26T, E31S, Q53S, W107K
notes: tagless
B41: T026301095 (VHH, name in Kabat numbering)
VHH: B1 VHH with A33D, Q53S, W107S
notes: tagless
B42: T026301104 (VHH, name in Kabat numbering)
VHH: B1 VHH with W107K
notes: tagless
B43: T026301114 (VHH, name in Kabat numbering)
VHH: B1 VHH with G26T, Q53S, W107K
notes: tagless
B44: T026301108 (VHH, name in Kabat numbering)
VHH: B1 VHH with G26T, W107S
notes: tagless
B45: T026301115 (VHH, name in Kabat numbering)
VHH: B1 VHH with G26T, E31S, A33D, Q53S, W107K
notes: tagless
B46: T026301065 (VHH, name in Kabat numbering)
VHH: B1 VHH with G26T, A33D
notes: tagless
B47: T026301129 (VHH, name in Kabat numbering)
VHH: B1 VHH with A33D, W107K
notes: tagless
B48: T026301077 (VHH, name in Kabat numbering)
VHH: B1 VHH with G26T, A33D, D104S, W107K
notes: tagless
B49: T026301120 (VHH, name in Kabat numbering)
VHH: B1 VHH with G26T, A33D, W107S
notes: tagless
B50: T026301118 (VHH, name in Kabat numbering)
VHH: B1 VHH with E31S, A33D, Q53S, W107S
notes: tagless
B51: T026301131 (VHH, name in Kabat numbering)
VHH: B1 VHH with G26T, E31S, A33D, Q53S, W107S
notes: tagless
B52: T026301106 (VHH, name in Kabat numbering)
VHH: B1 VHH with G26T, E31S, A33D, W107S
notes: tagless
B53: T026301058 (VHH, name in Kabat numbering)
VHH: B1 VHH with G26T, W107K
notes: tagless
B54: T026301092 (VHH, name in Kabat numbering)
VHH: B1 VHH with E31S, A33D, Q53S, W107K
notes: tagless
B55: T026301093 (VHH, name in Kabat numbering)
VHH: B1 VHH with G26T, E31S, A33D, Q53S, D104S, W107S
notes: tagless
B56: T026301053 (VHH, name in Kabat numbering)
VHH: B1 VHH with G26T, A33D, Q53S, D104S, W107K
notes: tagless
B57: T026301055 (VHH, name in Kabat numbering)
VHH: B1 VHH with G26T, E31S, A33D, Q53S, D104S, W107K
notes: tagless
B58: T026301056 (VHH, name in Kabat numbering)
VHH: B1 VHH with G26T, A33D, W107K
notes: tagless
B59: T026301062 (VHH, name in Kabat numbering)
VHH: B1 VHH with G26T, E31S, A33D, Q53S
notes: tagless

biological target: T1, human FcRn/b2M (human, UniProt P61769 21-119, biotinylated); experiment: SPR pH 6.0
T1 construct: bought recombinant biotinylated protein (ACRO FCM-H82W4 or Immunitrack ITF01); also called hFcRn; hFcRn/hb2M

koff [s⁻¹] | Binder
0.014 | B1
0.034 | B2
0.0095 | B3
0.0082 | B4
0.013 | B5
0.059 | B6
0.013 | B7
0.032 | B8
0.021 | B9
0.0066 | B10
0.012 | B11
0.015 | B12
0.0056 | B13
0.0018 | B14
0.028 | B15
0.0067 | B16
0.01 | B17

koff [s⁻¹] | Binder
0.041 | B18
0.021 | B19
0.0061 | B20
0.067 | B21
0.0095 | B22
0.039 | B23
0.049 | B24
0.0072 | B25
0.0054 | B26
0.0013 | B27
0.01 | B28
0.0088 | B29
0.054 | B30
0.034 | B31
0.0093 | B32
0.0045 | B33
0.033 | B34

biological target: T1, human FcRn/b2M; experiment: SPR off-rate pH 6.0

binding result | Binder
no binding | B35
no binding | B36
no binding | B37
no binding | B38
no binding | B39
no binding | B40
no binding | B41
no binding | B42
no binding | B43
no binding | B44
no binding | B45
no binding | B46
no binding | B47
no binding | B48
no binding | B49
no binding | B50
no binding | B51
no binding | B52
no binding | B53
no binding | B54
no binding | B55
no binding | B56
no binding | B57
no binding | B58
no binding | B59
